Measured values: paper PMC7817833

Columns and labels:
[1] = target: 14-3-3γ (UniProt P61981); assay: co-immunoprecipitation, western blot; settings: reference: wild-type ENDOG; sites T128,S288
[2] = target: 14-3-3γ (UniProt P61981); assay: co-immunoprecipitation of Myc-ENDOG, western blot; settings: reference: Myc-ENDOG wild type; sites T128,S288

Row | Substance | binding against the reference [1] | binding against the reference [2]
1 | ENDOG (Endonuclease G) (from UniProt Q14249) T128A/S288A (AA) | weaker | 
2 | ENDOG (Endonuclease G) (from UniProt Q14249) Myc-ENDOG-AA (T128A/S288A) |  | weaker
